In US20200216495A1 (ADRX, published 2020):
“And” between values parts separate entries of the source, which are not always exact repeats. Equal values may be shown once. Square brackets hold non-standard residues; d marks the D form. Ends that are not written are not given here. dMet(O) = CS(=O)CC[C@@H](N)C(=O)O

molecular target: Tau40 P301L protein (human); experiment: cell-based or functional assay

Row | Binder | IC50, Tau40 assay (ThT)
1 | [dK][dL][dK][dL][dK][dW] [klklkw] | 2.97 µM
2 | [dK][dI][dK][dI][dK][dW] [kikikw] | 2.92 µM
3 | [dL][dK][dI][dY][dI][dH][dY] [lkiyihy] | 2.93 µM
4 | [dF][dK][dI][dR][dI][dK][dW][dH] [fkirikwh] | 3.06 µM and 5.46 µM
5 | [dL][dK][dI][dMet(O)][dI][dH][dY] [lkixihy] | 2.81 µM
6 | [dE][dR][dL][dK][dV][dR][dW] [erlkvrw] | 3.07 µM
7 | [dL][dK][dI][dR][dR][dH][dY][dH] [lkirrhyh] | 3.21 µM
8 | [dF][dK][dI][dR][dI][dH][dY][dH] [fkirihyh] | 2.76 µM
9 | [dL][dK][dL][dK][dI][dK][dH][dF] [lklkikhf] | 2.75 µM
10 | [dL][dK][dI][dA][dI][dH][dY] [lkiaihy] | 2.96 µM
11 | [dF][dH][dI][dR][dL][dR][dH][dH] [fhirlrhh] | 3.21 µM and 4.3 µM
12 | [dF][dE][dL][dH][dI][dK][dW][dH] [felhikwh] | 3.11 µM
13 | [dL][dK][dI][dW][dI][dW][dY][dH] [lkiwiwyh] | 3.19 µM
14 | [dA][dR][dL][dK][dV][dR][dW] [arlkvrw] | 3.23 µM
15 | [dL][dE][dL][dK][dI][dK][dF][dW] [lelkikfw] | 2.73 µM and 2.85 µM
16 | [dL][dK][dI][dR][dI][dH][dA] [lkiriha] | 2.92 µM
17 | [dL][dK][dI][dR][dI][dH][dR][dH] [lkirihrh] | 3.16 µM

Next, values leading:

Row | IC50, Tau40 assay (ThT) | Binder
18 | 3.23 µM | [dW][dA][dL][dR][dI][dH][dW] [walrihw]
19 | 3.23 µM | [dW][dR][dL][dR][dI][dH][dA] [wrlriha]
20 | 3.23 µM | [dW][dR][dL][dE][dI][dH][dW] [wrleihw]
21 | 2.7 µM | [dT][dR][dL][dR][dI][dH][dW] [trlrihw]
22 | 2.7 µM | [dW][dR][dL][dK][dV][dD][dW] [wrlkvdw]
23 | 3.23 µM | [dW][dR][dL][dR][dI][dE][dW] [wrlriew]
24 | 3.06 µM | [dW][dR][dL][dR][dI][dW][dW] [wrlriww]
25 | 3.23 µM | [dW][dR][dL][dK][dA][dR][dW] [wrlkarw]
26 | 2.81 µM | [dW][dK][dL][dV][dV][dW] [wklvvw]
27 | 2.88 µM | [dW][dH][dV][dK][dF][dE][dL][dF] [whvkfelf]
28 | 3.23 µM | [dW][dR][dT][dR][dI][dH][dW] [wrtrihw]
29 | 2.79 µM | [dW][dR][dL][dR][dI][dF][dW] [wrlrifw]
30 | 2.76 µM | [dW][dR][dL][dT][dI][dH][dW] [wrltihw]
31 | 3.23 µM | [dW][dR][dL][dR][dA][dH][dW] [wrlrahw]
32 | 3.23 µM | [dW][dR][dL][dM][dI][dH][dW] [wrlmihw]
33 | 3.13 µM | [dW][dR][dL][dD][dV][dR][dW] [wrldvrw]
34 | 2.96 µM | [dR][dL][dR][dI][dR][dW] [rlrirw]
35 | 2.94 µM | [dW][dK][dL][dW][dL][dR][dW][dW] [wklwlrww]
36 | 3.23 µM | [dW][dR][dA][dK][dV][dR][dW] [wrakvrw]
37 | 3 µM | [dW][dR][dI][dR][dI][dR][dW] [wririrw]
38 | 2.76 µM | [dW][dD][dL][dK][dV][dR][dW] [wdlkvrw]

molecular target: Ac-VQIINK-NH2 (SEQ ID NO: 23) (N-terminal acetyl (Ac); C-terminal amide (NH2)); experiment: cell-based or functional assay

Row | Binder | VQIINK Inhibition IC50
39 | [dL][dK][dI][dR][dI][dH][dY] [lkirihy] | 17.6 µm
40 | [dK][dV][dR][dW][dW][dW][dR][dL] [kvrwwwrl] | 15.2 µm
41 | [dE][dR][dL][dK][dV][dR][dW][dW] [erlkvrww] | 20.4 µm

More lines, now with the values ahead:

Row | VQIINK Inhibition IC50 | Binder
42 | 20.5 µm | [dW][dR][dL][dK][dV][dR][dA] [wrlkvra]
43 | 19.1 µm | [dW][dR][dA][dR][dI][dH][dW] [wrarihw]
44 | 31.8 µm | [dL][dK][dR][dR][dI][dH][dY][dH] [lkrrihyh]
